# Source: publication PMC9413830
# Test system: Lys1 (position 1, -----K-----)
# Assay: potentiometry
# Details: No added salt; only the amphiphile counterions and the added NaOH; none (ultrapure water); 4 mM amphiphile, self-assembled; the assembly morphology changes with pH during the titration
row,Substance,pKa
1,C16-K (lysine amphiphile with a C16 alkyl tail; L enantiomer titrated) (synthetic),7.66
2,C14-K (lysine amphiphile with a C14 alkyl tail) (synthetic),8.01
3,C12-K (lysine amphiphile with a C12 alkyl tail) (synthetic),8.69
